Common to all, as to assay: filter binding
For one data set, the target named is T1, I-SceI G100C (Saccharomyces cerevisiae, UniProt P03882 1-235, G100C).
T1 sequence: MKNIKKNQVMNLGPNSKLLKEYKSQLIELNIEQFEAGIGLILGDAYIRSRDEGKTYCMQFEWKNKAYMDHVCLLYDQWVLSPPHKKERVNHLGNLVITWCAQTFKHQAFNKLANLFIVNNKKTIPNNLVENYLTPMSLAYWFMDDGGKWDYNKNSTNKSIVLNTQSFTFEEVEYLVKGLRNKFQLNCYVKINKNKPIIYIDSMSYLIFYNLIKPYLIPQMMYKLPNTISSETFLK

A further data set has as its target T2, I-SceI K86R (Saccharomyces cerevisiae, UniProt P03882 1-235, K86R).
T2 sequence: T1 sequence with K86R, C100G

In the next data set the target is T3, I-SceI G100V (Saccharomyces cerevisiae, UniProt P03882 1-235, G100V).
T3 sequence: T1 sequence with C100V

A further data set addresses T4, I-SceI K86R/G100S (Saccharomyces cerevisiae, UniProt P03882 1-235, K86R;G100S).
T4 sequence: T1 sequence with K86R, C100S

The target of data set [1] is T5, I-SceI wild type (K86/G100) (Saccharomyces cerevisiae, UniProt P03882 1-235).
T5 sequence: T1 sequence with C100G

In the next data set the target is T6, I-SceI G100S (Saccharomyces cerevisiae, UniProt P03882 1-235, G100S).
T6 sequence: T1 sequence with C100S

For a further data set, the target named is T7, I-SceI K86R/G100C (Saccharomyces cerevisiae, UniProt P03882 1-235, K86R;G100C).
T7 sequence: T1 sequence with K86R

For the next data set, the target named is T8, I-SceI K86R/G100T (Saccharomyces cerevisiae, UniProt P03882 1-235, K86R;G100T).
T8 sequence: T1 sequence with K86R, C100T

The next data set addresses T9, I-SceI G100T (Saccharomyces cerevisiae, UniProt P03882 1-235, G100T).
T9 sequence: T1 sequence with C100T

Substitutions are numbered along the chain they refer to.

A word on the Kd: it is a measure of binding affinity in units of concentration. A higher Kd goes with a looser complex.

B1: A/T+4 (WT) I-SceI target, filter binding duplex (dsDNA)
DNA 1: AACGAATAAAAGTTACGCTAGGGATAACAGGGTAATATAGCGAAAGAGTAGATATT
DNA 2: CAATATCTACTCTTTCGCTATATTACCCTGTTATCCCTAGCGTAACTTT
Regarding B1, the Kd with I-SceI G100C amounted to 110 ± 30 nM; in the data set with I-SceI K86R, 35 ± 5 nM; in the data set with I-SceI G100V, 240 ± 51 nM; with I-SceI K86R/G100S it was 83 ± 27 nM; in [1] it was 9 ± 3 nM; in the data set with I-SceI G100S it was 150 ± 26 nM. For the same molecule, the Kd stood at 74 ± 12 nM with I-SceI K86R/G100C, 96 ± 16 nM with I-SceI K86R/G100T and 39 ± 13 nM in the data set with I-SceI G100T.

B2: C/G+4 I-SceI target, filter binding duplex (dsDNA)
DNA 1: B1 DNA 1 with A29C
DNA 2: B1 DNA 2 with T29G
Take B2: the Kd with I-SceI G100C came to 34 ± 8.8 nM; with I-SceI K86R, 39 ± 10 nM; in the data set with I-SceI G100V it was 230 ± 27 nM; with I-SceI K86R/G100S it was 23 ± 4.3 nM; in [1] it was 20 ± 4.6 nM; with I-SceI G100S, 32 ± 10 nM. Also, the Kd was found to be 7.5 ± 2.3 nM with I-SceI K86R/G100C, 8.2 ± 0.86 nM in the data set with I-SceI K86R/G100T and 10 ± 1.5 nM with I-SceI G100T.

These data come from PMC3019082.
